The supplement of paper PMC6757056
± gives the standard deviation of the averaged measurements.

B1: library; a variant is named by its letters at N, in order (parent)
chain: GCUGUCACCGGUGUAUUACCCUAGUGGUCGACCGGUCUGAUGAGUCUNNNNNNAGACGAAACAGC

Tests used:
hypoxanthine [1] = variants of: B1; experiment: FACS-Seq fitted mean relative fluorescence mCherry/BFP without ligand (log10 relative fluorescence); ligand: hypoxanthine (xanthine aptamer); higher = higher reporter protein expression; conditions: HEK293T, ligand present: no
Method in brief: (§1)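 With or without ligand for 48 h, enriched HEK293T libraries carrying a lentiviral ribozyme-switch mCherry reporter and EF1α-BFP were sorted into 6 mCherry/BFP bins. Bin genomic DNA was amplified by PCR, barcoded and sequenced on MiSeq. Fluorescence was taken from normal fits to the resulting bin counts. Each fitted mean of log10(mCherry/BFP) was scaled to five spiked-in control ribozymes.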

hypoxanthine [2] = variants of: B1; experiment: normalized RNA/DNA level with ligand (relative to sTRSVctl = 100) (log10 (% of sTRSVctl)); ligand: hypoxanthine (xanthine aptamer); higher = less ribozyme self-cleavage, higher mRNA level; conditions: ligand concentration (+) RNA-Seq: 5 mM, HEK293T, reporter: mCherry (pCS4076), ligand present: yes
Description: (§2)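 Hammerhead (sTRSV) ribozyme switch libraries with a ligand aptamer grafted on stem I and a randomized N4-6 loop II, cloned into the 3' UTR of mCherry and transiently transfected into HEK293T cells; RNA-Seq 72 h post transfection with ligand added 1 h before transfection; RNA read count / plasmid DNA read count normalized to the non-cleaving sTRSVctl (x100), log10; sequences with >100 DNA reads. FACS-Seq: lentiviral library sorted into 6 bins after 48 h ligand, log-normal fit mean of mCherry/BFP scaled to controls. Printed sequences are partial switch sequences.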

hypoxanthine [3] = variants of: B1; experiment: normalized RNA/DNA level without ligand (relative to sTRSVctl = 100) (log10 (% of sTRSVctl)); ligand: hypoxanthine (xanthine aptamer); higher = less ribozyme self-cleavage, higher mRNA level; conditions: HEK293T, reporter: mCherry (pCS4076), ligand present: no
Description: as §2

hypoxanthine [4] = variants of: B1; experiment: FACS-Seq fitted mean relative fluorescence mCherry/BFP with ligand (log10 relative fluorescence); ligand: hypoxanthine (xanthine aptamer); ligand concentration (+) FACS-Seq: 5 mM; higher = higher reporter protein expression; conditions: HEK293T, ligand present: yes
Method in brief: as §1

Variant | FACS-Seq fitted mean (log10) (hypoxanthine [1]) | normalized RNA/DNA level with ligand (log10) (hypoxanthine [2]) | normalized RNA/DNA level without ligand (log10) (hypoxanthine [3]) | FACS-Seq fitted mean (log10) (hypoxanthine [4])
UCAAGU | 0.221 ± 0.018 | 1.91 ± 0.0075 | 1.63 ± 0.043 | 0.415 ± 0.046
UCAAGA | 0.386 ± 0.04 | 1.92 ± 0.028 | 1.54 ± 0.051 | 0.599 ± 0.074
CAUUGA | 0.221 ± 0.12 | 1.912 ± 0.0057 | 1.82 ± 0.053 | 0.32 ± 0.0063
GCAGGG | -0.0762 ± 0.0096 | 1.88 ± 0.028 | 1.506 ± 0.0099 | 0.479 ± 0.017
GCAGGA | 0.661 ± 0.024 | 1.9091 ± 0.0012 | 1.72 ± 0.035 | 0.705 ± 0.051
ACAGAU | 0.263 ± 0.00091 | 1.89 ± 0.033 | 1.64 ± 0.049 | 0.461 ± 0.069
ACAGAG | 0.0524 ± 0.0076 | 1.79 ± 0.044 | 1.34 ± 0.041 | 0.353 ± 0.058
ACACUG | 0.4461 ± 0.0036 | 1.9 ± 0.021 | 1.42 ± 0.097 | 0.795 ± 0.052
ACAGCG | 0.12 ± 0.062 | 1.92 ± 0.028 | 1.67 ± 0.0018 | 0.456 ± 0.065
AAUUAA | 0.435 ± 0.032 | 1.893 ± 0.0034 | 1.764 ± 0.0032 | 0.276 ± 0.14
AAUUAC | 0.511 ± 0.13 | 1.96 ± 0.04 | 1.823 ± 0.016 | 0.516 ± 0.022
AAUUAG | 0.404 ± 0.012 | 1.86 ± 0.037 | 1.52 ± 0.032 | 0.681 ± 0.03
UCAGCG | 0.383 ± 0.009 | 1.94 ± 0.067 | 1.8203 ± 0.0012 | 0.656 ± 0.083
GCAGAG | 0.09517 ± 0.00035 | 1.78 ± 0.031 | 1.35 ± 0.051 | 0.558 ± 0.037
GCAGAA | 0.408 ± 0.02 | 1.88 ± 0.057 | 1.7 ± 0.031 | 0.472 ± 0.013
GCAGAU | -0.106 ± 0.1 | 1.92 ± 0.077 | 1.76 ± 0.031 | -0.1997 ± 0.0017
ACACGU | 0.624 ± 0.02 | 1.95 ± 0.079 | 1.823 ± 0.0069 | 0.572 ± 0.096
ACACGA | -0.273 ± 0.0021 | 1.91 ± 0.062 | 1.73 ± 0.058 | 0.145 ± 0.0024
ACACGG | -0.144 ± 0.07 | 1.79 ± 0.053 | 1.32 ± 0.041 | 0.465 ± 0.024
CAUGAU | 0.296 ± 0.088 | 1.905 ± 0.0035 | 1.73 ± 0.032 | 0.333 ± 0.077
UCAACA | 0.101 ± 0.027 | 1.959 ± 0.018 | 1.84 ± 0.024 | 0.297 ± 0.054
UCAACG | 0.504 ± 0.15 | 1.918 ± 0.0024 | 1.783 ± 0.015 | 0.585 ± 0.091
UCAUAC | 0.306 ± 0.022 | 1.98 ± 0.041 | 1.89 ± 0.056 | 0.474 ± 0.0069
UCAUAA | 0.7537 ± 0.0032 | 1.93 ± 0.029 | 1.75 ± 0.025 | 0.622 ± 0.0065

Variant | FACS-Seq fitted mean (log10) (hypoxanthine [1]) | normalized RNA/DNA level with ligand (log10) (hypoxanthine [2]) | normalized RNA/DNA level without ligand (log10) (hypoxanthine [3]) | FACS-Seq fitted mean (log10) (hypoxanthine [4])
UCAUAG | 0.588 ± 0.1 | 1.89 ± 0.033 | 1.69 ± 0.022 | 0.567 ± 0.11
GCAAUA | 0.126 ± 0.036 | 1.941 ± 0.016 | 1.87 ± 0.026 | 0.466 ± 0.071
GCAAUG | 0.028 ± 0.018 | 1.87 ± 0.05 | 1.436 ± 0.0057 | 0.443 ± 0.04
GCAAUC | 0.498 ± 0.03 | 1.98 ± 0.058 | 1.77 ± 0.0096 | 0.531 ± 0.046
ACACCC | 0.129 ± 0.016 | 1.97 ± 0.1 | 1.87 ± 0.12 | 0.45298 ± 0.00015
UCAAUC | 0.3976 ± 0.0018 | 2.0151 ± 0.001 | 2 ± 0.024 | 0.543 ± 0.12
AAUGGA | 0.265 ± 0.081 | 1.88 ± 0.022 | 1.61 ± 0.038 | 0.192 ± 0.36
AAUGGG | 0.049 ± 0.035 | 1.77 ± 0.052 | 1.25 ± 0.063 | 0.547 ± 0.047
AAUUGG | 0.22 ± 0.02 | 1.872 ± 0.014 | 1.405 ± 0.0046 | 0.658 ± 0.036
AAUUGA | -0.0788 ± 0.062 | 1.9 ± 0.041 | 1.73 ± 0.018 | -0.112 ± 0.16
GCAGCA | 0.363 ± 0.034 | 1.983 ± 0.0069 | 1.827 ± 0.016 | 0.663 ± 0.015
GCAGCC | 0.465 ± 0.1 | 1.99 ± 0.044 | 1.78 ± 0.023 | 0.532 ± 0.069
CCAGCC | -0.754 ± 0.048 | 2 ± 0.026 | 1.916 ± 0.013 | -0.409 ± 0.044
CCAAGU | 0.347 ± 0.027 | 1.94 ± 0.024 | 1.863 ± 0.016 | 0.544 ± 0.032
CCAAGC | 0.126 ± 0.14 | 1.938 ± 0.012 | 1.79 ± 0.15 | 0.366 ± 0.074
UCAGUU | -0.0872 ± 0.018 | 1.96 ± 0.046 | 1.87 ± 0.04 | 0.0688 ± 0.016
UCAGUA | 0.09 ± 0.0096 | 1.92 ± 0.069 | 1.797 ± 0.013 | 0.386 ± 0.036
AAUUUG | 0.3 ± 0.021 | 1.873 ± 0.012 | 1.57 ± 0.046 | 0.468 ± 0.064
UAUUAC | 0.513 ± 0.025 | 1.9 ± 0.054 | 1.823 ± 0.018 | 0.512 ± 0.011
UAUUAU | 0.643 ± 0.015 | 1.93 ± 0.023 | 1.8 ± 0.028 | 0.594 ± 0.024
UAUUAA | 0.486 ± 0.054 | 1.89 ± 0.0083 | 1.86 ± 0.022 | 0.724 ± 0.088
AAUGAU | 0.38227 ± 0.00021 | 1.88 ± 0.041 | 1.683 ± 0.0061 | 0.571 ± 0.06
CAUGCG | 0.687 ± 0.064 | 1.92 ± 0.049 | 1.91 ± 0.082 | 0.645 ± 0.005
CAUGCU | 0.614 ± 0.036 | 1.97 ± 0.039 | 1.904 ± 0.013 | 0.529 ± 0.073

Variant | FACS-Seq fitted mean (log10) (hypoxanthine [1]) | normalized RNA/DNA level with ligand (log10) (hypoxanthine [2]) | normalized RNA/DNA level without ligand (log10) (hypoxanthine [3]) | FACS-Seq fitted mean (log10) (hypoxanthine [4])
GCAUAA | 0.705 ± 0.011 | 1.92 ± 0.03 | 1.801 ± 0.015 | 0.6261 ± 0.0017
GCAUAU | 0.326 ± 0.025 | 1.93 ± 0.031 | 1.736 ± 0.0026 | 0.329 ± 0.014
ACAGUC | 0.656 ± 0.012 | 1.924 ± 0.0022 | 1.951 ± 0.0032 | 0.657 ± 0.04
ACAGUU | -0.0389 ± 0.048 | 1.914 ± 0.0073 | 1.73 ± 0.021 | 0.0577 ± 0.038
GAUGUG | 0.2 ± 0.026 | 1.82 ± 0.019 | 1.31 ± 0.06 | 0.673 ± 0.077
GAUGUU | 0.33 ± 0.0059 | 1.914 ± 0.017 | 1.841 ± 0.0059 | 0.447 ± 0.029
UCAAAU | 0.4822 ± 0.0021 | 1.92 ± 0.02 | 1.77 ± 0.036 | 0.54 ± 0.053
UCAAAA | 0.491 ± 0.022 | 1.934 ± 0.013 | 1.717 ± 0.0054 | 0.446 ± 0.019
UCAAAG | -0.374 ± 0.059 | 1.92 ± 0.072 | 1.68 ± 0.039 | -0.184 ± 0.025
GCACCU | 0.968 ± 0.14 | 1.942 ± 0.0073 | 1.94 ± 0.044 | 0.785 ± 0.08
UCACCA | 0.743 ± 0.044 | 1.93 ± 0.025 | 1.919 ± 0.0074 | 0.834 ± 0.076
UCACCG | 0.705 ± 0.011 | 1.94 ± 0.027 | 1.7 ± 0.025 | 0.592 ± 0.045
UCACCU | 0.67 ± 0.034 | 1.94 ± 0.037 | 1.94 ± 0.061 | 0.419 ± 0.013
ACAGGU | 0.51 ± 0.04 | 1.858 ± 0.0068 | 1.49 ± 0.082 | 0.744 ± 0.054
ACAGGG | 0.428 ± 0.034 | 1.83 ± 0.038 | 1.44 ± 0.032 | 0.788 ± 0.041
ACAGGA | 0.278 ± 0.028 | 1.905 ± 0.013 | 1.66 ± 0.043 | 0.473 ± 0.069
GAUGAU | 0.537 ± 0.094 | 1.91 ± 0.05 | 1.767 ± 0.015 | 0.495 ± 0.025
GCACAA | 0.663 ± 0.02 | 1.86 ± 0.046 | 1.75 ± 0.019 | 0.678 ± 0.026
GCACAG | 0.227 ± 0.034 | 1.863 ± 0.00078 | 1.45 ± 0.021 | 0.0639 ± 0.076
ACAAAG | 0.343 ± 0.016 | 1.901 ± 0.0069 | 1.54 ± 0.028 | 0.696 ± 0.034
ACAAAA | 0.4 ± 0.17 | 1.904 ± 0.0062 | 1.81 ± 0.021 | 0.1925 ± 0.0013
ACAAAC | 0.5372 ± 0.0045 | 1.93 ± 0.062 | 1.826 ± 0.017 | 0.517 ± 0.046
ACAAAU | 0.311 ± 0.091 | 1.89 ± 0.029 | 1.65 ± 0.044 | 0.331 ± 0.014
